Measured values published in PMC4615653 (RNA Biology, 2015).

Molecular target: the molecule itself
Assay: zonal velocity sedimentation in a glycerol gradient

B1: CshA-His6 (natural protein, S. aureus, UniProt Q2FWH5 1-506, looked up)
chain: MQNFKELGISDNTVQSLESMGFKEPTPIQKDSIPYALQGIDILGQAQTGTGKTGAFGIPLIEKVVGKQGVQSLILAPTRELAMQVAEQLREFSRGQGVQVVTVFGGMPIERQIKALKKGPQIVVGTPGRVIDHLNRRTLKTDGIHTLILDEADEMMNMGFIDDMRFIMDKIPAVQRQTMLFSATMPKAIQALVQQFMKSPKIIKTMNNEMSDPQIEEFYTIVKELEKFDTFTNFLDVHQPELAIVFGRTKRRVDELTSALISKGYKAEGLHGDITQAKRLEVLKKFKNDQINILVATDVAARGLDISGVSHVYNFDIPQDTESYTHRIGRTGRAGKEGIAVTFVNPIEMDYIRQIEDANGRKMSALRPPHRKEVLQAREDDIKEKVENWMSKESESRLKRISTELLNEYNDVDLVAALLQELVEANDEVEVQLTFEKPLSRKGRNGKPSGSRNRNSKRGNPKFDSKSKRSKGYSSKKKSTKKFDRKEKSSGGSRPMKGRTFADHQK
stoichiometry N: 2
